Results taken from article PMC5862935, “YcfDRM is a thermophilic oxygen-dependent ribosomal protein uL16 oxygenase” (Extremophiles, 2018).

B1: ycfDRM (Rhodothermus marinus DSM 4252) (protein)
chain: MQLPETILGGLAPEEFLANYWQKRPLLIRQALPGFRSPITPEELAGLACEEGVTARLILEKGGAYPWEVRYGPFEPEDFVALPPTHWTLLVQEVDRLVPEVAALLETVRFVPNWRLDDIMVSYAPEGGTVGAHIDNYDVFLVQAWGRRRWQINHRPVEREELVPGLEVRLLAHFEPDAEWILEPGDVLYLPPRIPHYGVALEDCMTFSIGFRAPDQAELAEAMPRMAAWLDGGRRYADPDLTPADEPGEITPEALDQIQALLRALIDDRERLARWFGCIITEPRRGLPPEPPGRPLSAKQLHRRLQQGATLRRNAIPELAYVRHADGSATLFASGEAYELSPELADVAPLLTGRRPLTAETLRPWLERDDFLELLQTLIHSGILSLIPARKR
notes: pET28a NdeI/SacI, expressed in E. coli BL21(DE3); HisTrap and Superdex 75 purified
B2: ycfDEC (Escherichia coli K-12) (protein)
chain: MEYQLTLNWPDFLERHWQKRPVVLKRGFNNFIDPISPDELAGLAMESEVDSRLVSHQDGKWQVSHGPFESYDHLGETNWSLLVQAVNHWHEPTAALMRPFRELPDWRIDDLMISFSVPGGGVGPHLDQYDVFIIQGTGRRRWRVGEKLQMKQHCPHPDLLQVDPFEAIIDEELEPGDILYIPPGFPHEGYALENAMNYSVGFRAPNTRELISGFADYVLQRELGGNYYSDPDVPPRAHPADVLPQEMDKLREMMLELINQPEHFKQWFGEFISQSRHELDIAPPEPPYQPDEIYDALKQGEVLVRLGGLRVLRIGDDVYANGEKIDSPHRPALDALASNIALTAENFGDALEDPSFLAMLAALVNSGYWFFEG
notes: purified E. coli YcfD; construct not described in main text

How the values were obtained:
[1] = substrate: O=C(O)CCC(=O)C(=O)O; assay: MALDI-MS peptide hydroxylation assay, steady-state kinetics; type: biochemical, Rhodothermus marinus; conditions: co-substrates uL16RM peptide fragment and O2, Fe(II), ascorbate, 50 mM HEPES pH 7.5, 37 °C
[2] = substrate: O=C(O)CCC(=O)C(=O)O; assay: as above; type: biochemical, Escherichia coli; conditions: co-substrates uL16 peptide fragment and O2; Fe(II), ascorbate; temperature and pH for this row not explicitly stated in main text

| Protein | Km [1] [µM] | Km [2] [µM] |
| --- | --- | --- |
| B1 | 71.1 ± 12.2 |  |
| B2 |  | 8.6 ± 3.4 |
